Laboratory results: paper doi:10.1101/2023.01.30.525828, “A versatile synaptotagmin-1 nanobody provides perturbation-free live synaptic imaging and low linkage-error in super-resolution microscopy” (bioRxiv, 2023)

Legend:
[1] = molecular target: T1, cytosolic (amino acids 97-421) domain of rat Syt-1 (Rattus norvegicus (Rat)., UniProt P21707); assay: MST; NbSyt1 labelled with Alexa647 in MST buffer with 0.05 % Tween, incubated with dilutions of purified Syt-1(97-421); NT.115Pico Monolith; conditions: both partners purified
T1 construct: Synaptotagmin 1, rat, cytosolic domain, amino acids 97-421; also called rSyt-1(97-421); Syt-1(97-421); source: E. coli NEB-Express, purified (Ni beads, eluted on column with SUMO protease)
T1 sequence (P21707 97-421): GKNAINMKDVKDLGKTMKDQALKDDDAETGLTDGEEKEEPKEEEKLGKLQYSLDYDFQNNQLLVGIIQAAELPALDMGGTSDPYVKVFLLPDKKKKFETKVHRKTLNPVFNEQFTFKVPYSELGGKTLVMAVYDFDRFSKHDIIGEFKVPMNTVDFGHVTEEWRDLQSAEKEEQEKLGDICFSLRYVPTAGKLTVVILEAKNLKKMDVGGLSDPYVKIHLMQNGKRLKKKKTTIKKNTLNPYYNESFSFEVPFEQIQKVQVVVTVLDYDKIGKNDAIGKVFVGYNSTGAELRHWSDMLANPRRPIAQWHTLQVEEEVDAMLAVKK

[2] = molecular target: T2, desthio-biotinilated Syt-1(97-421) (Rattus norvegicus (Rat)., UniProt P21707, desthiobiotin (conjugated with desthiobiotin-N-hydroxysuccinimide ester)); assay: ELISA; phage ELISA: desthio-biotinilated Syt-1(97-421) immobilised overnight at 4°C on MaxiSorp plate; 25 μl phage supernatant in 5% skim milk PBS-T, 1 h RT; detected with anti-M13-HRP; conditions: one partner purified
T2 construct: Synaptotagmin 1, rat, cytosolic domain, amino acids 97-421; The phage-display methods also print Syt-1(197-421) for this antigen; also called rSyt-1(97-421); immobilized cytosolic rSyt-1(97-421); source: E. coli NEB-Express, purified (Ni beads, SUMO protease elution), conjugated to desthiobiotin-NHS ester
T2 sequence (P21707 97-421): as above

[3] = molecular target: T3, full-length rat Syt-1 fused to EGFP (Rattus norvegicus (Rat)., UniProt P21707); assay: immunostaining of cells or tissue; COS-7 cells transfected with Syt1-EGFP, fixed with 4% PFA, permeabilised; 50 nM fluorescent nanobody, 2 h RT; conditions: one partner purified
T3 construct: Synaptotagmin 1, rat, full length; also called Syt1-EGFP; source: COS-7, transiently transfected, in fixed cells
T3 sequence (P21707 whole entry, the tested form may be a part): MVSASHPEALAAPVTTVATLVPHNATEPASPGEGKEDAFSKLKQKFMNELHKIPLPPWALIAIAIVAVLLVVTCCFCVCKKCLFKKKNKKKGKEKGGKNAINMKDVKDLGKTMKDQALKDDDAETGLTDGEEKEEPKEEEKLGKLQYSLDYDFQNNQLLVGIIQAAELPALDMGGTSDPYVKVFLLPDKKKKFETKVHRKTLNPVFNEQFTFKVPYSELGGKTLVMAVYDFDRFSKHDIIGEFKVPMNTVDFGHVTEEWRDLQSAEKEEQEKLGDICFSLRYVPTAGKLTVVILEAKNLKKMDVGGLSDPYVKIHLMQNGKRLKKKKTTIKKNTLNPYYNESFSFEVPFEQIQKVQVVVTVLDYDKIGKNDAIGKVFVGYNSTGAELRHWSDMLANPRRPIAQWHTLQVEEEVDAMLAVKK

[4] = molecular target: T1, cytosolic (amino acids 97-421) domain …; assay: far-Western, overlay or dot blot; dot blot: ~1 μg target protein spotted on nitrocellulose; NbA51 or NbA91 labeled with AbberiorStar635p at 5 nM in 5% milk PBS-Tween20, 1 h; conditions: both partners purified

B1: NbSyt1 labelled with Alexa647 (VHH)
VHH: EVQLEESGGGLVRPGGSLRLSCAASGFPFSKYFMSWVRQAPGKGLEWVSTISASGNYETYTESVKGRFTIARDNAKNTLYLQMNSLKPEDTAVYYCAKGSWARDMTRGQGTQVTVSS
notes: also called Fluorescent NbSyt1; source: E. coli SHuffle Express (NEB), purified (Ni beads, SUMO protease elution), labelled with maleimide fluorophore
Kd [1]: 0.7 ± 0.3 nM

B2: clone A91 displayed on phage (VHH)
VHH: EVQLVESGGGLVQPGGSLRLSCVASGFPFSKYFMSWVRQAPGKGLEWVSTISSSGSTTTYTESVKGRFTISRDNAKNTLYLQMNNLKPEDTAVYYCEKGSWAPNNARGQGTQVS
notes: alpaca nanobody clone A91; One of the five clones positive in the phage ELISA; the fusion partner on the phage is surmised from the phagemid; also called NbA91
binding result [2]: binds

B3: NbA91 directly labeled with AbberiorStar635p (VHH)
VHH: EVQLVESGGGLVQPGGSLRLSCVASGFPFSKYFMSWVRQAPGKGLEWVSTISSSGSTTTYTESVKGRFTISRDNAKNTLYLQMNNLKPEDTAVYYCEKGSWAPNNARGQGTQVS
notes: alpaca nanobody clone A91; with one or two ectopic cysteines (at the C-terminus or at N- and C-termini); also called Nb-Ab635p
binding result [3]: binds | binding result [4]: binds
